In PMC12764052:

Target: Pyruvate kinase M2 isoform (human (endogenous in AGS and HGC27)) (UniProt P14618)
Test: cross-linking

Sequence of Pyruvate kinase M2 isoform, P14618 1-531 (natural protein; other documents disagree on this pair) (P14618 whole entry, canonical isoform): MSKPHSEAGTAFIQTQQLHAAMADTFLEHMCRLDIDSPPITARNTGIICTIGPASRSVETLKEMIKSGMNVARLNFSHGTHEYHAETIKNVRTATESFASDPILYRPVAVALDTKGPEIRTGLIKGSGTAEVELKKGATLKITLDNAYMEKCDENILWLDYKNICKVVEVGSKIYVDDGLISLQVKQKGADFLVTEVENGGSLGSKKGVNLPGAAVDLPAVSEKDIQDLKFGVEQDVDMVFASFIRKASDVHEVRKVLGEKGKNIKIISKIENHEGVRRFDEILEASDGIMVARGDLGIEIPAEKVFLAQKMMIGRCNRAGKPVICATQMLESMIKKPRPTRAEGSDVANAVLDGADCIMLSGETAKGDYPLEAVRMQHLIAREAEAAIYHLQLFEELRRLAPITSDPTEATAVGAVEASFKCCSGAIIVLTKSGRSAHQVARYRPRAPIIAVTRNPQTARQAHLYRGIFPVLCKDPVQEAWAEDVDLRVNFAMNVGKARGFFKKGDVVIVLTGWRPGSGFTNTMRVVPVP

stoichiometry N: 2
Substance: Pyruvate kinase M2 isoform, P14618 1-531 (natural protein; other documents disagree on this pair)
